Data: patent US20250145723A1 (MINGHUI PHARMACEUTICAL HANGZHOU, published 2025)
Like-named read-outs stand apart in the source and are kept apart here. One block for each molecule: values may come before it.

Key:
[1] = target: human IGF-1R on BaF3 cells overexpressing human IGF-1R (human) (UniProt P08069); experiment: cell-based or functional assay
[2] = target: T1, recombinant human IGF-1R-his (human, UniProt P08069 31-932); experiment: ELISA, coated hIGF-1R-his
T1 construct: Recombinant his-tagged protein; also called hIGF-1R-his; hIGF1R-his; not shown: his tag
Experimental: Recombinant human IGF-1R-his antigens (2 μg/mL) were added to a 96-well plate for coating overnight at 4° C. The plate was washed three times with PBST, and then was blocked with PBST containing 5% skimmed milk powder at room temperature for 2 h. The blocking solution was discarded, the plate was washed three times with PBST, and then 30 μL of nanobody-Fc fusion proteins of different concentrations were added and incubated at room temperature for 1 h. The plate was washed 3 times with PBST, horseradish peroxidase-labeled anti-human Fc antibodies (abcam, ab97225) were added at 30 μL/well and incubated at room temperature for 1 h, and the plate was washed 3 times with PBST. TMB substrate solution was added at 30 μL/well for color development in the dark for 5-30 min, 30 μL of 2 M H₂SO₄ was added to terminate the reaction, and the OD₄₅₀ was read using a microplate reader. A curve was fit and the EC₅₀ value was calculated using Graphpad Prism software.

[3] = target: T1, recombinant human IGF-1R-his; experiment: SPR (BIAcore), hIGF-1R-his on CM5 chip, Test 1
Experimental: The affinity of the nanobody fusion proteins to recombinant human IGF-1R was detected using a BIAcore instrument. […] The flow rate was set to 10 μL/min. The chip activation time of a mixture of EDC and NHS was the default value of 420 s. The recombinant human IGF-1R-his was coupled to 800 RU on a CM5 chip under the preset coupling mode, and unbound activated groups were blocked with ethanolamine. Two-fold serially diluted nanobody-Fc fusion proteins (five concentrations of each fusion protein were detected) were injected sequentially at a flow rate of 50 μL/min at 25° C., with an association time of 120 s and a dissociation time of 600 s. A curve was fit with a 1:1 Langmuir binding model using the BIAcore T200 analysis software to determine kinetic constants such as the association rate constant, the dissociation rate constant, and the association dissociation constant.

[4] = target: T1, recombinant human IGF-1R-his; experiment: ELISA, coated hIGF-1R-his; remark: listed apart in the source
Experimental: The binding activity of the nanobody-Fc fusion proteins obtained after two rounds of mutant construction with the antigen proteins (recombinant human IGF-1R-His) was detected by an ELISA method: 2 μg/mL recombinant human IGF1R-His antigen proteins were added to a 96-well ELISA plate, at 30 μL/well, for coating overnight at 4° C. The plate was washed three times with PBST. PBS containing 5% skim milk powder was added for blocking at room temperature for 2 h. The plate was washed three times with PBST. The nanobody-Fc fusion proteins were serially diluted 3-fold, and the nanobody-Fc fusion proteins of different concentrations were added to each well at 30 μL/well and incubated at room temperature for 1 h. The plate was washed three times with PBST, and horseradish peroxidase-labeled anti-human Fc antibodies were added at 30 μL/well and incubated at room temperature for 50 min. The plate was washed three times with PBST. TMB substrate solution was added at 30 μL/well for color development in the dark for 1-5 min, 30 μL of 2 M hydrochloric acid was added to terminate the reaction, and the OD₄₅₀ was read using a microplate reader. Curve fitting was conducted and the EC₅₀ value was calculated using Graphpad Prism software.

[5] = target: T1, recombinant human IGF-1R-his; experiment: competition ELISA, coated hIGF-1R-his, competitor IGF-2 (N-Avi & N-Fc)
Experimental: (§1) Recombinant human IGF-1R-his antigens (5 μg/mL) were added to a 96-well plate for coating overnight at 4° C. The plate was washed 4 times with 1×TBST, and then was blocked with 2% BSA at 37° C. for 1.5 h. The plate was washed four times with 1×TBST. A volume of 50 μL of biotinylated IGF-1-Fc (2.5 μg/mL) or IGF-2 (N-Avi & N-Fc 4 μg/mL), and 50 μL of nanobody-Fc fusion proteins of different concentrations (with a starting concentration of 10 μg/mL, 2-fold serially diluted) were added to the 96-well plate and incubated at 37° C. for 1 h. The plate was washed 4 times with 1×TBST, horseradish peroxidase-labeled Streptavidin (Thermo, 21126) was added and incubated at 37° C. for 1 h, and the plate was washed 4 times with 1×TBST. TMB substrate solution was added at 200 μL/well for color development in the dark for 20 min, 50 μL of 1 M H₂SO₄ was added to terminate the reaction, and the OD₄₅₀ was read using a microplate reader. A curve was fit and the IC₅₀ value was calculated using Graphpad Prism software.

[6] = target: T1, recombinant human IGF-1R-his; experiment: competition ELISA, coated hIGF-1R-his, competitor biotinylated IGF-1-Fc
Experimental: as §1

Sequence of human IGF-1R on BaF3 cells overexpressing human IGF-1R (human) (P08069 31-1367): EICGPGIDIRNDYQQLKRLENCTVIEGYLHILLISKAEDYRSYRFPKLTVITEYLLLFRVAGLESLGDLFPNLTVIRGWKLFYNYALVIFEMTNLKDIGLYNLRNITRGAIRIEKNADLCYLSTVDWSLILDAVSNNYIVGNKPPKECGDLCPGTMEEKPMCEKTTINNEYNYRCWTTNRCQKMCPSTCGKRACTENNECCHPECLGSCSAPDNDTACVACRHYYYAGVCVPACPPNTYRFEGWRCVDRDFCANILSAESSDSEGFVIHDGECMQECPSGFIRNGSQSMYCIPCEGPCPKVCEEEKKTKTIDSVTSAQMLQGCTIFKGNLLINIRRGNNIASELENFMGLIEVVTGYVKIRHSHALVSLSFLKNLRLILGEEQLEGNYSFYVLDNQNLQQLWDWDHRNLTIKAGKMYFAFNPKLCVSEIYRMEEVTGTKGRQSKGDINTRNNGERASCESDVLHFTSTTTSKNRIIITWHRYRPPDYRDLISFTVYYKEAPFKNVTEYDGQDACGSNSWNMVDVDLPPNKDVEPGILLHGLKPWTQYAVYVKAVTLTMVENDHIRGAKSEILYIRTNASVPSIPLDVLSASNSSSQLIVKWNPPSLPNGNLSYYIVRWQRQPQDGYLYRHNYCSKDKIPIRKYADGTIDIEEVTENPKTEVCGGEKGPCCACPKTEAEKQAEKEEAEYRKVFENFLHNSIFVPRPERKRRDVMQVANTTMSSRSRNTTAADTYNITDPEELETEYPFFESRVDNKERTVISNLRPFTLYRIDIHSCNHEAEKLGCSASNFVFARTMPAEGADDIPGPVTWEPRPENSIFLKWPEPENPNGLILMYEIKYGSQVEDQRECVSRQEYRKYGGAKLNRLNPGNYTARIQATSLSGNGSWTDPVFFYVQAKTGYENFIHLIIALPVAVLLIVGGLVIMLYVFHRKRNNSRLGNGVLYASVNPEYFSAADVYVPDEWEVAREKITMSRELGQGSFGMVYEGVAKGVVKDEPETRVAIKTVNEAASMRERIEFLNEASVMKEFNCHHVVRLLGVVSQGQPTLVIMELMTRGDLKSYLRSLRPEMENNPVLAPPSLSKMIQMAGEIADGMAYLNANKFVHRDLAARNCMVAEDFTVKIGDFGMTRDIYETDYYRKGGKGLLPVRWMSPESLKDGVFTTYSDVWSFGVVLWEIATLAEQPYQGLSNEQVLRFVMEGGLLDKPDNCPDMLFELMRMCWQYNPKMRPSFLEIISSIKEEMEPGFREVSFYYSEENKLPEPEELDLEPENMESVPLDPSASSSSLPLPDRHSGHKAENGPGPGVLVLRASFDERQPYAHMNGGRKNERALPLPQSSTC
T1 sequence (P08069 31-932 limits assumed): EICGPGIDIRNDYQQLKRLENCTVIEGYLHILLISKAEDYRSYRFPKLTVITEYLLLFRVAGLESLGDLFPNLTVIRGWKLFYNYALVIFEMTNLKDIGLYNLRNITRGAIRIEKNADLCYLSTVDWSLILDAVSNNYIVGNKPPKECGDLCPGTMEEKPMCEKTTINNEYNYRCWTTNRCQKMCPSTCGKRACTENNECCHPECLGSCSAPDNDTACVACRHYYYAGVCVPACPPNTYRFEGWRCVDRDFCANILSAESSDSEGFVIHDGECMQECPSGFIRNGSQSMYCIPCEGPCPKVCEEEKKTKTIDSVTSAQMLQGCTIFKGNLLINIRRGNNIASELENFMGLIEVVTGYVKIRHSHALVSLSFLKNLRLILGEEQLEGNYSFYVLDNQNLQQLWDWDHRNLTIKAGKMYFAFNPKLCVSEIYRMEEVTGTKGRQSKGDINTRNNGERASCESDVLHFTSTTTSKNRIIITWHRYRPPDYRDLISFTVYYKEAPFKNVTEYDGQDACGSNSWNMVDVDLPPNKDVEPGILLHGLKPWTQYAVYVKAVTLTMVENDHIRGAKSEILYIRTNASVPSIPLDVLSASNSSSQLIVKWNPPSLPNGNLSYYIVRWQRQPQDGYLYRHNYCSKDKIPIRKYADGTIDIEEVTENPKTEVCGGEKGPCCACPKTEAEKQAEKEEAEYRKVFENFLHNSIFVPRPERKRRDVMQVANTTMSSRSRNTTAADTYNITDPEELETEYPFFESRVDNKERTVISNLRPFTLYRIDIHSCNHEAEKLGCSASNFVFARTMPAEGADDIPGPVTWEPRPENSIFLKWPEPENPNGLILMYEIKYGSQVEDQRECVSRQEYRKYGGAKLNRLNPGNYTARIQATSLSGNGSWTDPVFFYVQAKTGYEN

IC50, inhibition of IGF-1-induced proliferation of BaF3 cells overexpressing human IGF-1R [1]: 0.121 µg/mL
Molecule: Teprotumumab (antibody)

EC50 [2]: 0.0369 µg/mL
Kd [3]: 31700 pM
koff [3]: 0.00211 s⁻¹
kon [3]: 66800 M⁻¹ s⁻¹
B1: 5115-H1-Fc (Fc fusion)
chain: EVQLVESGGGLVQPGGSLRLSCAASGRTFSSFVMSWFRQAPGKEREFVSAISGSGSRAYYADSVKGRFTISRDNSKNTLYLQMNSLRAEDTAVYYCAANPRRATPDYTQYAYWGQGTLVTVSS
notes: Humanized VHH-Fc; Fc not specified; not shown: Fc

EC50 [4]: 0.00233 µg/mL
B2: 5115-H4-M34-11-Fc (Fc fusion)
chain: EVQLVESGGGLVQPGGSLRLSCAASTRTFSSFVMAWFRQAPGKGLEFVSAISGSGSRARYADSVKGRFTISRDNSKNTLYLQMNSLRAEDTAVYYCAANPRRATPDLTQYAYWGQGTLVTVSS
notes: VHH-Fc; Fc not specified; not shown: Fc

EC50 [4]: 0.00122 µg/mL
Kd [3]: 1850 pM
koff [3]: 0.00207 s⁻¹
kon [3]: 1.12e+06 M⁻¹ s⁻¹
B3: 5115-H1-M3-Fc (Fc fusion)
chain: EVQLVESGGGLVQPGGSLRLSCAASGRTFSSFVMSWFRQAPGKEREFVSAISGSGSRARYADSVKGRFTISRDNSKNTLYLQMNSLRAEDTAVYYCAANPRRATPDLTQYAYWGQGTLVTVSS
notes: as for B2

EC50 [4]: 0.00241 µg/mL
B4: 5115-H4-M34-16-Fc (Fc fusion)
chain: EVQLVESGGGLVQPGGSLRLSCAASGRTFSSFVMGWFRQAPGKGLEFVSAISGFGSRARYADSVKGRFTISRDNSKNTLYLQMNSLRAEDTAVYYCAANPRRATPDLTQYAYWGQGTLVTVSS
notes: as for B2

EC50 [4]: 0.0017 µg/mL
Kd [3]: 1150 pM
koff [3]: 0.00123 s⁻¹
kon [3]: 1.07e+06 M⁻¹ s⁻¹
B7: 5115-H1-M10-Fc (Fc fusion)
chain: EVQLVESGGGLVQPGGSLRLSCAASGGTFSSFVMSWFRQAPGKEREFVSAISGSGSRAYYADSVKGRFTISRDNSKNTLYLQMNSLRAEDTAVYYCAANPRRATPGFTQYAYWGQGTLVTVSS
notes: as for B2

EC50 [4]: 175 pM
B9: 5115-H4-M41-Fc (Fc fusion)
chain: EVQLVESGGGLVQPGGSLRLSCAASGRTFSSFVMGWFRQAPGKGLEFVSAISGSGSRARYADSVKGRFTISRDNSKNTLYLQMNSLRAEDTAVYYCAANPRRATPDYTQYLYWGQGTLVTVSS
notes: as for B2

EC50 [4]: 183 pM
B11: 5115-H4-M52-Fc (Fc fusion)
chain: EVQLVESGGGLVQPGGSLRLSCAASSRTFSSFVMSWFRQAPGKGLEFVSAISGSGSRANYADSVKGRFTISRDNSKNTLYLQMNSLRAEDTAVYYCAANPRRATPDLTQYAYWGQGTLVTVSS
notes: as for B2

EC50 [4]: 0.00333 µg/mL
B13: 5115-H4-M34-12-Fc (Fc fusion)
chain: EVQLVESGGGLVQPGGSLRLSCAASGRPFSSFVMAWFRQAPGKGLEFVSAISGSGSRARYADSVKGRFTISRDNSKNTLYLQMNSLRAEDTAVYYCAANPRYATPDLTQYAYWGQGTLVTVSS
notes: as for B2

IC50, inhibition of IGF-1-induced proliferation of BaF3 cells overexpressing human IGF-1R [1]: 0.00816 µg/mL
IC50, inhibition of IGF-1-induced proliferation of BaF3 cells overexpressing human IGF-1R ([1]; record 2): 0.00851 µg/mL
EC50 [4]: 52 pM
Kd [3]: 86.2 pM
koff [3]: 0.000274 s⁻¹
kon [3]: 3.18e+06 M⁻¹ s⁻¹
IC50 [5]: 0.237 µg/mL
IC50 [6]: 0.269 µg/mL
B15: 5115-H4-M34-Fc (Fc fusion)
chain: EVQLVESGGGLVQPGGSLRLSCAASGRTFSSFVMAWFRQAPGKGLEFVSAISGSGSRARYADSVKGRFTISRDNSKNTLYLQMNSLRAEDTAVYYCAANPRRATPDLTQYAYWGQGTLVTVSS
notes: as for B2

EC50 [2]: 0.0925 µg/mL
B18: 5115-H3-Fc (Fc fusion)
chain: EVQLVESGGGLVQPGGSLRLSCAASGRTFSSFVMSWFRQAPGKELEFVSAISGSGSRAYYADSVKGRFTISRDNSKNTLYLQMNSLRAEDTAVYYCAANPRRATPDYTQYAYWGQGTLVTVSS
notes: as for B1

The next lines start with the molecule.

B5: 5115-H4-M39-Fc (Fc fusion)
chain: EVQLVESGGGLVQPGGSLRLSCAASGRTFSSFVMSWFRQAPGKGLEFVSAISGSGSRSRYADSVKGRFTISRDNSKNTLYLQMNSLRAEDTAVYYCAANPRRATPDLRQYAYWGQGTLVTVSS
notes: as for B2
EC50 [4]: 210 pM

B6: 5115-H4-M34-15-Fc (Fc fusion)
chain: EVQLVESGGGLVQPGGSLRLSCAASGRTFSSLVMAWFRQAPGKGLEFVSAISGSGSRARYADSVKGRFTISRDNSKNTLYLQMNSLRAEDTAVYYCAANPRRATPDLTQYAYWGQGTLVTVSS
notes: as for B2
EC50 [4]: 0.00225 µg/mL

B8: 5115-H1-M17-Fc (Fc fusion)
chain: EVQLVESGGGLVQPGGSLRLSCAASGRTFSSFVMSWFRQAPGKEREFVSAISGSGSRSRYADSVKGRFTISRDNSKNTLYLQMNSLRAEDTAVYYCAANPRRATPDLIQYAYWGQGTLVTVSS
notes: as for B2
EC50 [4]: 0.00184 µg/mL
Kd [3]: 101 pM
koff [3]: 0.000465 s⁻¹
kon [3]: 4.62e+06 M⁻¹ s⁻¹

B10: 5115-H4-M48-Fc (Fc fusion)
chain: EVQLVESGGGLVQPGDSLRLSCAASGRTFSRFVMSWFRQAPGKGLEFVSAISGSGSRAYYADSVKGRFTISRDNSKNTLYLQMNSLRAEDTAVYYCAANPRRATPDLRQYAYWGQGTLVTVSS
notes: as for B2
EC50 [4]: 475 pM

B12: 5115-H6-Fc (Fc fusion)
chain: EVQLVESGGGLVQPGGSLRLSCAASGRTFSSFVMMWFRQAPGKEREFVSAISGSGSRAYYADSVKGRFTISRDNSKNTLYLQMNSLRAEDTAVYYCAANPRRATPDYTQYAYWGQGTLVTVSS
notes: as for B1
EC50 [2]: 0.0929 µg/mL

B14: 5115-H2-Fc (Fc fusion)
chain: EVQLVESGGGLVQPGGSLRLSCAASGRTFSSFVMSWFRQAPGKGREFVSAISGSGSRAYYADSVKGRFTISRDNSKNTLYLQMNSLRAEDTAVYYCAANPRRATPDYTQYAYWGQGTLVTVSS
notes: as for B1
EC50 [2]: 0.0652 µg/mL

B16: 5115-H4-M34-14-Fc (Fc fusion)
chain: EVQLVESGGGLVQPGGSLRLSCAASRGTFSSFVMAWFRQAPGKGLEFVSAISGSGKVARYADSVKGRFTISRDNSKNTLYLQMNSLRAEDTAVYYCAANPRRATPDLTQYAYWGQGTLVTVSS
notes: as for B2
EC50 [4]: 0.00328 µg/mL

B17: 5115-H4-Fc (Fc fusion)
chain: EVQLVESGGGLVQPGGSLRLSCAASGRTFSSFVMSWFRQAPGKGLEFVSAISGSGSRAYYADSVKGRFTISRDNSKNTLYLQMNSLRAEDTAVYYCAANPRRATPDYTQYAYWGQGTLVTVSS
notes: as for B1
EC50 [2]: 0.0828 µg/mL
IC50 [5]: 0.152 µg/mL
IC50 [6]: 0.227 µg/mL
